B1: Azoarcus group I ribozyme (parent)
chain: GUGCCUUGCGCCGGGAAACCACGCAAGGGAUGGUGUCAAAUUCGGCGAAACCUAAGCGCCCGCCCGGGCGUAUGGCAACGCCGAGCCAAGCUUCGGCGCCUGCGCCGAUGAAGGUGUAGAGACUAGACGGCACCCACCUAAGGCAAACGCUAUGGUGAAGGCAUAGUCCAGGGAGUGGCGAAAGUCACACAAACCGG

Results on 84 variants are retold here after the RNAGym collection of RNA variant scans (doi:10.1093/molbev/msab373).

Variants of B1 are the subject of this data set. Briefly: reverse-splicing fitness (ratio to wild type); higher = more active; in vitro selection; Mg2+ level not given. Put shortly: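 An in vitro group I ribozyme library with randomized positions was T7-transcribed and gel-purified. In triplicate, 10 pmol RNA in EPPS pH 7.5 was reacted with 50 pmoles of a 30-nt RNA substrate for 1 h at 37 °C across several added MgCl2 levels (1–48 mM), then stopped with EDTA. Products were reverse transcribed from a substrate-complementary primer, PCR-amplified and sequenced (HiSeq 4000). Fitness is a variant's read proportion after selection over that before, normalised to wild type.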
With C82A A111G A120C A145U C150U U176A, the reverse-splicing fitness amounted to 0.0145. In the case of C82G A111G A120U A145G C150U U176G it was 0.00429; in that of A120G A145G C150A C169A U176C, 0.0558; in that of C82U A120U A145G C150G C169A U176C, 0.00568. Regarding A111G A120G A145U C150U U176C, the reverse-splicing fitness amounted to 0.0782.

Regarding C82A A120C C150G C169A, the reverse-splicing fitness was 0.0112. Take C82U A111C A145U C150U U176G: the reverse-splicing fitness worked out at 0.0152. In the case of A111G A120G C150G C169U it was 0.0264; in that of C82A A120C C150U C169U U176C, 0.0147; in that of A145C, 0.95. In the case of C82A A111G A145C C169U U176C it was 0.0113; in that of A111C A120G A145G C150U C169G U176C, 0.035.

As for C82G A111C A120C A145G C150A C169G U176C, the reverse-splicing fitness turned out to be 0.0228. Turning to C82G A120U A145U C150A U176A, the reverse-splicing fitness stood at 0.0083. The result for C82U A111G A120U A145G C150G C169A U176A reads 0.0084; that for C82U A111G A120G A145G C150G C169A, 0.00895; that for C82U A120C A145U C169A U176C, 0.00593. In the case of C82U A120U A145C C150U C169G it was 0.00257. The result for C82U A145U C150G U176G reads 0.0104; that for C82U A120G A145C C150G C169G U176A, 0.00838; that for C82A A111U A145U C150G C169G U176G, 0.00651. For A111G A120U A145C C150A C169A, the reverse-splicing fitness worked out at 0.00208. A111G A120U A145C C150A C169U: the reverse-splicing fitness was 0.00746. The result for A111U A120C A145C C150U C169G U176A reads 0.0171; that for C82A A111G A120U A145G C150U C169A U176G, 0.00232. In the case of C82A C150U C169G it was 0.0106; in that of A145C C150A C169U U176C, 0.0218. In the case of C82G A120U C169A U176G it was 0.000985. As to A120G A145G C150A C169G U176G, the reverse-splicing fitness amounted to 0.00637. The result for C82A A120G A145C C150A C169U U176G reads 0.00478. As for C82G A111C A120G A145G C150U C169A U176C, the reverse-splicing fitness worked out at 0.0147. In the case of C82U A111U A120C C150U C169G U176G, the reverse-splicing fitness turned out to be 0.00509. Take C82U A111G A145C C150U: the reverse-splicing fitness turned out to be 0.091. The result for C82A A111C A120G C150U C169G reads 0.00891. In the case of C82U A120G A145C C169U U176C it was 0.0127. In the case of C82G A111C A120U A145C C150U C169G it was 0.00299; in that of C82U A111C A120G A145G C150G C169G, 0.0068; in that of C82U A111G A120G A145U C169U, 0.0103. C82U A111G A120G A145G C150G C169U U176A: the reverse-splicing fitness is 0.0114. As for C82U A111U A120G A145U C150U C169A, the reverse-splicing fitness was 0.00897. As for C82A A111U A120C A145G C150U U176A, the reverse-splicing fitness stood at 0.0126. In the case of A111C A120C C150A C169G it was 0.00716. In the case of A111G A145G C150U C169G U176C it was 0.0431. Consider A111G A145U C150A C169U U176A, for which the reverse-splicing fitness came out at 0.0162. In the case of A111G A120C A145G C169U U176G it was 0.00613; in that of C82G A111C A120U A145G C150G, 0.0111. The result for C82U A111C A120U A145C C150U reads 0.00868; that for A111C A120C A145G C169G U176C, 0.0244; that for C82G A111U A145G C150A U176C, 0.0447. The result for A111C A120U C150U C169G U176A reads 0.00676; that for C82G A111U A145C C150U U176C, 0.0544. Take A111U A120C A145U C150G C169G: the reverse-splicing fitness was found to be 0.00662. With A111U A145C C150U C169A U176G, the reverse-splicing fitness is 0.00703.

Turning to C82G A111U A120C C150A C169A, the reverse-splicing fitness is 0.0127. The result for C82U A120G A145G C150A C169U U176G reads 0.0051; that for C82G A111U A120G A145G, 0.0151; that for C82G A120G A145U C169A U176G, 0.00363. Take C82A A111U A120C A145C C150U C169U U176G: the reverse-splicing fitness turned out to be 0.00618. Regarding A111G C150A C169G U176G, the reverse-splicing fitness turned out to be 0.00767. In the case of C82G A120U A145U C150G C169A U176G it was 0.00205; in that of C82G A120U A145U C150G C169A U176C, 0.00187. The result for C82U A111C A120G C169U U176G reads 0.00376; that for A111C A145U C169A U176A, 0.0141; that for C82A A120G A145C C150G C169A, 0.00915. Regarding C82G A111G A145C C150G, the reverse-splicing fitness was 0.0378. The result for C82U A111U A120U A145G C169A U176C reads 0.00291; that for C82G A120U A145C C169A U176A, 0.00185. In the case of C82U A120G A145U C169A U176G it was 0.00294. On to C82G A120G A145C C150A, for which the reverse-splicing fitness was 0.00852. The result for C82G A111C A120U A145G C169G U176G reads 0.00194.

On to A120C A145C C150G U176A, for which the reverse-splicing fitness was 0.155.

As for C82G C150G C169U U176G, the reverse-splicing fitness turned out to be 0.00593. In the case of C82G A120U A145C C150G C169U U176C it was 0.00176. In the case of C82U A111C A120U A145U C150G C169U U176C it was 0.00264; in that of A111C A120G A145G C150U U176G, 0.00709.

As to A111C A120G A145G C150U U176C, the reverse-splicing fitness was determined as 0.04. The result for C82U A111U A120G A145C C169U U176G reads 0.00376; that for A111C A120C A145G C150U C169A, 0.0131. In the case of C82A A111C A120U C150A C169G U176G it was 0.00295. In the case of C82U A111U A120U A145U C150U C169G U176C it was 0.00317. On to C82G A120G A145C C150U U176C, for which the reverse-splicing fitness was determined as 0.00922. The result for C82G A111U A120U A145G C150U C169G U176G reads 0.00266; that for C82A A111U A120U A145C C150G C169A U176A, 0.00316; that for C82A A111U A120G A145C C169G U176C, 0.0184.
